In test [1] the target is T1, recombinant Crtac1B fragment #6 (human, UniProt Q9NQ79 28-606).
T1 construct: also called fCrtac1B (1-607)
T1 sequence: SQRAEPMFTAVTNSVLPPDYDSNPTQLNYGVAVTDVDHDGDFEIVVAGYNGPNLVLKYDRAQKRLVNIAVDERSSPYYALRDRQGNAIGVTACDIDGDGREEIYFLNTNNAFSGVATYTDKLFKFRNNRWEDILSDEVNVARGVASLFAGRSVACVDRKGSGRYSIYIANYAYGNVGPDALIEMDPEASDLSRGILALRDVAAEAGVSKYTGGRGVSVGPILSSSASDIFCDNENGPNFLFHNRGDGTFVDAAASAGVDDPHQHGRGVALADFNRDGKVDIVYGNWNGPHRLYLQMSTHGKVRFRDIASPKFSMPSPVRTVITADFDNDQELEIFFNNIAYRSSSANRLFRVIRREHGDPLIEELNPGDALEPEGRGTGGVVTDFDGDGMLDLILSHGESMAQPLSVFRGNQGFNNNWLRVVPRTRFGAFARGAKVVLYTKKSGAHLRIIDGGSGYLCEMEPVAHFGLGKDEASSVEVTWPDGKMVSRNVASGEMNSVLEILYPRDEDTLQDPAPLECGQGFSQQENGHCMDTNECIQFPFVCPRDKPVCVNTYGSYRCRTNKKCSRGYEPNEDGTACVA
Briefly: antigen immobilized ELISA, hybridoma culture supernatant, color development at 655 nm same as plate without antigen. How it is done:
(§1) A positive antigen (50 μL) and a negative control (50 μL) were added to each well of a 96 well plate, respectively. Then, the plate was incubated at 4° C. overnight, and the positive antigen and the negative control were immobilized in the well to obtain an antigen immobilized plate. Each well was washed twice with a washing solution (250 μL, 0.05% Tween (registered trademark) 20/20 mM potassium phosphate buffer (pH 7.4), 150 mM NaCl). To each well was added a blocking buffer (250 μL, 5% skim milk/20 mM potassium phosphate buffer (pH 7.4), 150 mM NaCl), and blocked at room temperature for 90 minutes. Culture supernatant (50 μL) of each hybridoma selected by primary screening was added to each well, and the cells were incubated at 37° C. for 1 hour. Each well was washed three times with a washing solution (250 μL). The HRP-labeled anti-mouse IgG antibody (MBL, product number 330) was diluted 1:1,000 with dilution buffer II (1% skim milk/20 mM potassium phosphate buffer (pH 7.4), 150 mM NaCl). A solution (50 μL) of this labeled antibody was added to each well, and the well was incubated at 37° C. for 1 hour. Each well was washed five times with a washing solution (250 μL). Chemical chromogenic substrate solutions (Bio-Rad, TMB Peroxidase EIA Substrate Kit) were added to respective wells at 50 μL, and the plate was allowed to stand at room temperature under shading for 30 minutes. The plate was set in a microplate reader (Thermo Fisher Scientific, Varioskan (registered trademark) Flash), and the color development intensity at 655 nm was measured for each well.
(§2) Reactivity of the monoclonal antibody contained in the culture supernatant of the hybridomas of clones 1B4 and 15C2 to the antigen was confirmed by ELISA using the 7 recombinant Crtac1B fragments described above. A specific operation was the same as that of the antigen immobilized ELISA method of Example 1. For comparison, ELISA was performed in the same manner using a 96 well plate in which no antigen was immobilized.
(§3) In addition, as to these monoclonal antibodies, the color development intensity when the recombinant Crtac1B fragments of #6 and #7 were used was substantially the same as that when a plate without immobilizing the antigen was used.

Test [2] deals with T2, recombinant Crtac1B fragment #7 (negative control) (human, UniProt Q9NQ79 28-606).
T2 construct: also called fCrtac1B (1-606)
T2 sequence: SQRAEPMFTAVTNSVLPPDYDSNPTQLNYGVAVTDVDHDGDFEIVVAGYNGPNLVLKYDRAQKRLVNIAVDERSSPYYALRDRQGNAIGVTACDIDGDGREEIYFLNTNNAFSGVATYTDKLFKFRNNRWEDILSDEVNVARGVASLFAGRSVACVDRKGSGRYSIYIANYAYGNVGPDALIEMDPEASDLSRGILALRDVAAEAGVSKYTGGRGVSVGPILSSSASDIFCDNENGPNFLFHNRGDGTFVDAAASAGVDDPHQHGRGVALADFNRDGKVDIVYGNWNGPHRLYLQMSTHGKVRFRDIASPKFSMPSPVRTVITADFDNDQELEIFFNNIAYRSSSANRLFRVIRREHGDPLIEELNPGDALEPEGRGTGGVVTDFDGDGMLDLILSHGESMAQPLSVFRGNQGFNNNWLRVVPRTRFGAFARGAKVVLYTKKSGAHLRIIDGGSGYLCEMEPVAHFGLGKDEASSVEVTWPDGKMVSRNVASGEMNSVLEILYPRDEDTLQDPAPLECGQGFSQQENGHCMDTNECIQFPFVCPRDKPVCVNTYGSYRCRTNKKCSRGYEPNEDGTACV
The test is described as above. How it is done: as §1, §2, §3

In test [3] the target is T3, antigen peptide P3 (BSA conjugate in the primary screening) (human, NH2-PEG6 at the N-terminus; C-terminal amide; disulfide bond between the two cysteine residues; carrier protein (BSA in the screening ELISA, KLH for immunization) conjugated to the N-terminal amino …).
T3 peptide: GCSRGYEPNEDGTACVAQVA
Briefly: primary screening ELISA, BSA-conjugated antigen peptide immobilized, hybridoma culture supernatant. How it is done: In order to select hybridomas producing monoclonal antibodies reactive to the antigen peptide, the culture supernatant of each hybridoma was measured by ELISA. In the primary screening, as a positive antigen, a peptide to which BSA was conjugated was used as a carrier protein for each of the antigen peptides P1, P2 and P3. Specific operations were as follows.
The positive antigen was diluted with PBS to a concentration of 1 μg/mL. Positive antigen (50 μL) was added to each well of a 96 well plate. Then, the plate was incubated at 4° C. for 17 hours, and a positive antigen was immobilized in the well to obtain an antigen immobilized plate. Each well was washed three times with PBS (250 μL). To each well was added a blocking buffer (250 μL, 0.5% skim milk/PBS) and blocked at room temperature for 1 hour. Culture supernatant (50 μL) of each hybridoma was added to each well, and the cells were incubated at room temperature for 1 hour. Each well was washed three times with PBS (250 μL). An ALP-labeled anti-mouse IgG goat antibody (SBI, product number 1030-04) was diluted 1:2,500 with PBS. A solution (50 μL) of this labeled antibody was added to each well, and the well was incubated at room temperature for 30 minutes. Each well was washed three times with PBS (250 μL). […] The plate was set in a microplate reader, and the emission intensity was measured for each well.

B1: 15C2 antibody (monoclonal antibody derived from the hybridoma of clone 15C2) (antibody, mouse IgG1, kappa, V domains shown)
VH: EVQLQQFGAELVKPGASVKISCKASGYTFTDYNMDWVKQSHGKSLEWIGDINPNYDSSSYNQKFKGKATLTVDKSSSTAYMELRSLTSEDTAVYYCTRSGGTYWGQGTLVTVSA
VL: DIQMNQSPSSLSASLGDTITITCHASQNINVWLSWYQQKPGNIPKLLIYKASNLHTGVPSRFSGSGSGTGFSLTISSLQPEDIATYYCQQAQSYPRTFGGGTKLEIKR
notes: Mouse IgG1; Used as hybridoma culture supernatant (ELISA) or purified from supernatant (IB, IP); also called anti-Crtac1B antibody; antibody of the present embodiment
With B1, the binding result in test [1] is given as “no binding”; in test [2], “no binding”; in test [3], “binds”.
